The values that follow come from US12060408B2, “Screening assays, modulators and modulation of activation of Receptor for Advanced Glycation End-products (RAGE)” (Monash University, priority 2017, dated 2024).

One test has as its system RAGE. In words: Ang II-induced pro-inflammatory signalling (p65-NFκB expression) in AT1R-CHO / RAGE-AT1R-CHO cells. The test is classed as cell-based, human. Particulars: pre-treatment with mCherry-S391A-RAGE362-404 0.4 ng/ml; FIG. 10G.
The next test addresses T1, CCR2 (Mus musculus, UniProt P51683).
T1 construct: host or cells: mouse models (and one rat model) in vivo
Conditions: mouse models of multiple sclerosis, renal ischemia-reperfusion injury, ureteric obstruction, diabetic nephropathy; rat model of arthritis; cited from earlier work.

In a further test the test system is murine SVEC. In words: Induction of ICAM-1 by Ang II in murine SVEC transfected with RAGE constructs (RT-PCR). The test is classed as cell-based, mouse. Conditions: transfected construct (FIG. 12). The source says: FIG. 12A. The effect of transfection of murine SVEC with RAGE or RAGE mutants on the induction of ICAM-1 by Ang II compared to vector alone (pc-Neo) as a control, as measured by RT-PCR. Data are mean±SEM; n=6-8 per group. * vs untreated control, # vs neo+Ang II, p<0.05.
FIG. 12B. The effect of transfection with truncated RAGE mutants on the induction of ICAM-1 by Ang II in murine SVEC to identify the smallest fragments with inhibitory activity. Data are mean±SEM; n=6-8 per group, * vs no treatment control, p<0.05.
FIG. 12D. The effect of transfection with single site-specific alanine or lysine mutants of RAGE370-390 on the induction of ICAM-1 by Ang II in murine SVEC. Data are mean±SEM; n=6-8 per group, * vs no treatment control, p<0.05.
(§1) Cellular Expression of Pro-Inflammatory Markers and Mediators by Quantitative Real-Time PCR
After 2 hours of exposure to Ang II (1 μM) or the RAGE ligand, S100A8/A9 (5 ng/ml) cells were placed in Trizol, mRNA extracted and cDNA synthesized. Changes in the gene expression of the NFκB subunit, p65 (RelA) or NFκB-activated target genes (e.g ICAM-1, VCAM-1) were estimated by quantitative real-time RT-PCR, performed using the TaqMan system based on real-time detection of accumulated fluorescence (ABI Prism 7700, Perkin-Elmer Inc, PE Biosystems, Foster City, CA, USA). […]

Test [1] deals with primary murine aortic endothelial cells (PMAEC). In words: Expression of pro-inflammatory markers by real-time RT-PCR in primary murine aortic endothelial cells. The test is classed as cell-based, mouse. Here is the method: Primary aortic endothelial cells (PMAEC) were isolated from the aortae of (wild-type) C57bl6 mice and AGER KO mice and cultured in Dulbecco's modified Eagle's medium (DMEM)/F12 endothelial cell growth supplement (ECGS) supplemented media. Chinese Hamster Ovary (CHO) cells were cultured using F12 media (10% FCS with 2 mM glutamine). Human microvascular endothelial cells (HMEC) were cultured in MCDB 131 medium (10% FCS with 10 mM glutamine, EGF and hydrocortisone).
as §1
(§2) After 2 hours of exposure to Ang II (1 μM) or the RAGE ligand, S100A8/A9 (5 ng/ml) cells were placed in Trizol, mRNA extracted and cDNA synthesized. Changes in the gene expression of the NFκB subunit, p65 (RelA) or NFκB-activated target genes (e.g ICAM-1, VCAM-1) were estimated by quantitative real-time RT-PCR, performed using the TaqMan system based on real-time detection of accumulated fluorescence (ABI Prism 7700, Perkin-Elmer Inc, PE Biosystems, Foster City, CA, USA). Gene expression was normalized to 18S mRNA and reported as fold change compared to the level of expression in untreated control mice/cells, which were given an arbitrary value of 1.
Selective Silencing of Gene Expression Using siRNA
PMAEC from C57b/6 mice were also transfected with siRNA to RAGE (2 nM) Ambion, ID:s62119), p65 (RelA) (10 nM; Ambion, ID:s72857), MyD88 (10 nM; Ambion. ID:s201719), PKCζ (10 nM; Ambion, ID:s71716), IQGAP-1, Ambion, ID:s78119), Diaph1 (10 nM; sense5′-[…], antisense 3′-[…]; Invitrogen) or scrambled control #1 (2 nM or 10 nM; Ambion) using Lipofectamine RNAiMAX (Invitrogen) as per manufacturer's instructions. Cells were allowed to recover in media containing 10% FBS for 16 hours prior to treatment with 1 μM Ang II or 5 ng/ml of the RAGE ligand, S100A8/A9, as a signalling control.
Background: Real-time PCR tracks product formation cycle by cycle.

The test system of test [2] is RAGE ligand-dependent activation of RAGE. In words: S100A8/A9-induced NFκB activation (p65 gene expression) in CHO cells expressing RAGE constructs. The test is classed as cell-based, human. Conditions: CHO cells expressing the RAGE polypeptide, 5 ng/ml. Here is the method:
Generation of Transgenic Chinese Hamster Ovary Cells
100 ng of AT1R-Rluc8 construct was transfected into CHO cells using Lipofectamine 2000 (Thermo). Stable transfectants were selected using G418. AT1R—CHO were then transiently transfected with RAGE constructs using Lipofectamine 2000 (Invitrogen) and incubated for 16 h. The Homo sapiens AGER transcript variant 1 coding sequence (NM_001136) was synthesised and cloned between the NheI and XbaI sites of pCIneo (Promega) to generate the vector pCIneo-RAGE. This plasmid was then used to generate a library of mutant AGER clones (NP_001127). Primers 1-RAGE-SP-5′ and mCherry-XhoI-NotI-3′ were used to amplify the coding sequence of mCherry from the vector pmCherry-C1. The resultant PCR product was then used as template for a second PCR using primers 2-RAGE-SP-5′ and mCherry-XhoI-NotI-3′. The PCR product generated was digested with NheI and NotI and inserted between the NheI and NotI sites of pCIneo to generate pCIneo-SP-mCherry. The sequence of the insert was confirmed by DNA sequencing (Micromon, Monash University). […]
as §1, §2
To measure the induction of NFκB activity by 1 μM Ang II, or 5 ng/ml of the RAGE-ligand S100A8/A9 as a signalling control, AT1R—CHO cells were transfected with 0.4 μg of plasmids encoding NFκB-SEAP or β-galactosidase (β-Gal) using Lipofectamine 2000 (Invitrogen) as per manufacturer's instructions. After 24 hours, cells transfected with each plasmid combination were then treated with Ang II (1 μM) or left untreated and incubated for 4 hours before cell supernatants and cell lysates were collected. Cell supernatants were analysed using a chemiluminescent SEAP reporter gene assay (Roche Applied Science) to detect SEAP production after treatment. To control for transfection efficiency, cell lysates were assayed for β-Gal using a commercially available kit (Promega).

For a further test, the target named is T2, CCR4 (Homo sapiens, UniProt P51679).
T2 construct: expressed in transfected cells; host or cells: HEK293FT, transient
T2 sequence (P51679 whole entry): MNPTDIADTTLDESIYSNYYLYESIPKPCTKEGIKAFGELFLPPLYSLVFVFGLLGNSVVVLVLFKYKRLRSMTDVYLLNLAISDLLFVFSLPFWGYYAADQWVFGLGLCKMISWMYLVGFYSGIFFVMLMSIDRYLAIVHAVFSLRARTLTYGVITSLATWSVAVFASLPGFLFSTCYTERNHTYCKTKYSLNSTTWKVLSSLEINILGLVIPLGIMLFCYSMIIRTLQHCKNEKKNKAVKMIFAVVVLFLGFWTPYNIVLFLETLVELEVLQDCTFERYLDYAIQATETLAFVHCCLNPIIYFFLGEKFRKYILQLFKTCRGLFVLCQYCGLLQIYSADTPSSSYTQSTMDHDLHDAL
T2 sequence (P32121 whole entry partner): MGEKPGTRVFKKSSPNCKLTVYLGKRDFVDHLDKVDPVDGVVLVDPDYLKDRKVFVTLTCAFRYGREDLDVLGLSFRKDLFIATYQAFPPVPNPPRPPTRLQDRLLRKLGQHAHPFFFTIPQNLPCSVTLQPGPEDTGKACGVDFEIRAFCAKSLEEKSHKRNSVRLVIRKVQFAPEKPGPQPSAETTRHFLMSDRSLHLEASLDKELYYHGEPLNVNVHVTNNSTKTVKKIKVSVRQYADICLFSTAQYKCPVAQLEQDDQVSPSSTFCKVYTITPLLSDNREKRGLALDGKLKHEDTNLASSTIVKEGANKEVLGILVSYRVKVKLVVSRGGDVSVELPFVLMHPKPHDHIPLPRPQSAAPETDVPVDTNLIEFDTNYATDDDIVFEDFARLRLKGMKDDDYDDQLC
In words: Receptor-HIT BRET, β-arrestin2/Venus with RAGE/Rluc8 and CCR4. The test is classed as cell-based. The source says: Bioluminescence Resonance Energy Transfer (BRET)
BRET is an established technology for studying protein-protein proximity in live cells, particularly involving GPCRs (Pfleger and Eidne, 2006). One protein of interest was linked to a bioluminescent donor enzyme, Rluc8, a variant of Renilla luciferase, and a second linked to an acceptor fluorophore, Venus, a variant of green fluorescent protein. If in close proximity (<10 nm), energy resulting from the rapid oxidation of a cell-permeable coelenterazine substrate by the donor can transfer to the acceptor, which in turn fluoresces at a longer characteristic wavelength.
Plasmids were transiently co-expressed in human embryonic kidney (HEK) 293FT cells and BRET measurements taken at 37° C. using a POLARstar Omega or LUMIstar plate reader (BMG Labtech, Mornington, Victoria, Australia) with 460-490 nm (‘donor emission’) and 520-550 nm (‘acceptor emission’) filters, or a VICTOR Light plate reader (Perkin Elmer, Glen Waverley, Victoria, Australia) with 400-475 nm (‘donor emission’) and 520-540 nm (‘acceptor emission’) filters, or a CLARIOstar plate reader (BMG Labtech, Mornington, Victoria, Australia) with 420-480 nm (‘donor emission’) and 520-620 nm (‘acceptor emission’) filters.
The BRET ratio was calculated by subtracting the ratio of ‘acceptor emission’ over ‘donor emission’ for a cell sample expressing Rluc8-tagged protein alone from the same ratio for a cell sample expressing both Rluc8 and Venus-tagged proteins. Alternatively, the ligand-induced BRET signal was calculated by subtracting the ratio of ‘acceptor emission’ over ‘donor emission’ for a vehicle-treated cell sample from the same ratio for a second aliquot of the same cells treated with agonist.
For BRET kinetic assays, the final pre-treatment reading is presented at the zero time point (time of ligand/vehicle addition). For the saturation assay, fluorescence after light excitation was measured on an EnVision 2102 multi-label plate reader (PerkinElmer, Glen Waverley, Victoria, Australia) using a 485/14 excitation filter, 535/25 emission filter and D505 mirror. […]
A general note: Bioluminescence resonance energy transfer reports proximity on the nanometre scale.

T1 sequence (P51683 whole entry): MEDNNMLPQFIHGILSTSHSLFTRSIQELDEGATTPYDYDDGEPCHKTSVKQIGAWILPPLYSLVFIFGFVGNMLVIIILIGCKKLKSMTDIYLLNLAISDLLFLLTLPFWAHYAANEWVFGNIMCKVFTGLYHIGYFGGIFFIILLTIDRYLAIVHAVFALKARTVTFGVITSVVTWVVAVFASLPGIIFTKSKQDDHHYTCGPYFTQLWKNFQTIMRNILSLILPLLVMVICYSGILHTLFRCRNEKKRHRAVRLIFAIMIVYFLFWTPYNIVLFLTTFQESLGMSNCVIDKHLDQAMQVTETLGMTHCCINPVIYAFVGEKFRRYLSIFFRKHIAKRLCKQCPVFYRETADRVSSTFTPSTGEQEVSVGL

For the molecule “RAGE370-404: N-truncated RAGE peptide without the charged patch Diaph1 binding domain (GEERKAPENQEEEEERAELNQSEEPEAGESSTGGP; UniProt Q15109 370-404, looked up, fragment)”, in the test on RAGE, the “overcoming the inhibition of transactivation conferred by mCherry-S391A-RAGE362-404” value is “able to overcome the inhibition”. With `O=C(O)C[CH2][Ge](=[O])[O][Ge](=[O])[CH2]CC(=O)O` [propagermanium, 3-[(2-Carboxyethyl-oxogermyl)oxy-oxogermyl]propanoic acid], the inflammation result on CCR2 was “suppress inflammation”.

As to `Cc1ccc2c(c1)C1(CCN(CCc3nc(-c4ccccc4)oc3C)CC1)OC(=O)N2` [RS-504393], the inflammation entry on CCR2 is reported as “suppress inflammation”.

As to “R366A-Q367A-RAGE362-404: mutated RAGE cytosolic tail peptide in which the charged patch is altered (LWQRAARRGEERKAPENQEEEEERAELNQSEEPEAGESSTGGP; cytosolic tail peptide; UniProt Q15109 362-404, looked up, variant R366A Q367A)”, in the test with RAGE, the “overcoming the inhibition of transactivation conferred by mCherry-S391A-RAGE362-404” value is recorded as “able to overcome the inhibition”. In the case of `CCO[C@H]1CN(C2CCC(O)(c3ccc4c(c3)OCO4)CC2)C[C@@H]1NC(=O)CNC(=O)c1cccc(C(F)(F)F)c1` (stereo partly shown) [INCB3344], the inflammation entry at CCR2 is “suppress inflammation”. Consider “RAGE385-390: N-truncated RAGE construct eliminating both 380 and 384 (RAELNQ; UniProt Q15109 385-390, looked up, fragment)”, for which the “inhibition of Ang II-induced ICAM-1 (acting on wild type RAGE)” value with murine SVEC is recorded as “loss of the modulatory actions”.

B1: S100A8/A9: RAGE ligand (protein)
chain 1: MLTELEKALNSIIDVYHKYSLIKGNFHAVYRDDLKKLLETECPQYIRKKGADVWFKELDINTDGAVNFQEFLILVIKMGVAAHKKSHEESHKE
chain 2: MTCKMSQLERNIETIINTFHQYSVKLGHPDTLNQGEFKELVRKDLQNFLKKENKNEKVIEHIMEDLDTNADKQLSFEEFIMLMARLTWASHEKMHEGDEGPGHHHKPGLGEGTP
Consider B1, for which, in test [1] (PMAEC from AGER KO mice), the “induction of pro-inflammatory genes” value is on record as “does not lead to the induction”. For the same molecule, in test [1] (PMAEC from C57bl6 mice, Ang II 1 μM or S100A8/A9), the “expression of pro-inflammatory genes (ICAM-1, VCAM-1, TNFα, MCP-1)” value is recorded as “induction”. Besides, in test [1] (PMAEC with AGER expression silenced using siRNA), the “NFκB-dependent induction of VCAM-1 gene expression” value is “preventing”. Further, the “activation of p65-NFκB” value in test [2] is “able to induce activation”.

B2: CCL22: chemokine ligand used to activate CCR4 (protein)
chain: GPYGANMEDSVCCRDYVRYRLPLRVVKHFYWTSDSCPRPGVVLLTFRDKEICADPRVPWVKMILNKLSQ
For B2, in the test with CCR4 (control), the “recruitment of βarrestin2/Venus to CCR4/Rluc8” value is on record as “recruitment”. In addition, the “recruitment of β-arrestin2/Venus proximal to RAGE/Rluc8” value with CCR4 (in the presence of CCR4) is “not and Lack of”. Besides, in the test with CCR4 (untagged CCR4 co-expressed), the “BRET signal between Gαi/Nluc and Gγ2/Venus” value is listed as “observed”.
